This note sets out measurements from patent US20220125947A1 (published 2022).

Substitutions are numbered along the chain they refer to.

First the molecules themselves.
B1: VG9B68 (antibody, human IgG1, kappa, V domains shown)
VH: EVQLVESGAEVKKPGSSVKVSCKASGGTFSTYAISWVRQAPGQGLEWMGGIIPIFGTATYAQRFQDRVMITADKSTTTAYMELSSLRSEDTAVFYCARGVGWGSDYYYGLDVWGQGTMVTVSS
VL: EIVMTQSPLSSPVTLGQPASISCRSSQSLVHSDGNTYLSWLQQRPGQSPRLLIYKISNRFSGVPDRFSGSGAGTDFTLRITRVEPEDVGVYYCIQATHHPLTFGGGTRLEIKR
notes: IgG1, kappa
B2: VG9B204 (antibody, human IgG1, lambda, V domains shown)
VH: QVQLQESGPGLVKPSETLSLTCTVSYGSFSSFYWSWIRQPAGKGLEWIGRIYTSGGTIYNPSLKSRVTMSVDTSKNQFSLKLSSVTAADTAVYYCARWLRAFDYWGQGTLVTVSS
VL: not shown
notes: IgG1, lambda
B3: VG9B157 (antibody, human IgG1, lambda, V domains shown)
VH: EVQLLESGGGLVKPGASLKLSCAASGFTFSNHGMSWVRQTSDKRLEWVASITRGGDTTYYPDNVKGRFTISRENAKNTLYLQMSSLKSDDTALYYCTRGPLTVGYAMDYWGQGTTVTVSS
VL: SSELTQDPAVSVALGQTVRITCQGDSLRSYYATWYQQKPGQAPILVIYGENNRPSGIPDRFSGSRSGNTASLTITGAQAEDEADYYCNSRDTGDHHLVFGGGTKLTVLG
notes: IgG1, lambda
B4: VG9B457 (antibody, human IgG1, lambda)
heavy: not shown
light: QAVLTQPASVSGSPGQSITISCTGTSSDVGGYNYVSWYQQHPGKAPKLMIYEVSNRPSGVSNRFSGSKSGNTASLTISGLQAEDEADYYCSSYTSTSVVFGGGTKLTVLGQPKAAPSVTLFPPSSEELQANKATLVCLISDFYPGAVTVAWKADSSPVKAGVETTTPSKQSNNKYAASSYLSLTPEQWKSHRSYSCQVTHEGSTVEKTVAPTECS
notes: IgG1, lambda
B5: VG9B459 (antibody, human IgG1, lambda)
heavy: not shown
light: B4 light with A2P
notes: IgG1, lambda
B6: VG9B464 (antibody, human IgG1, lambda)
heavy: not shown
light: B4 light with A2S, V3A
notes: IgG1, lambda
B7: VG9B455 (antibody, human IgG1, lambda)
heavy: not shown
light: B4 light with Q1S, A2Y, V3E
notes: IgG1, lambda
B8: VG9B450 (antibody, human IgG1, lambda)
heavy: not shown
light: B4 light with A2S
notes: IgG1, lambda
B9: VG9B437 (antibody, human IgG1, lambda)
heavy: not shown
light: B4 light with A2S, V3A
notes: IgG1, lambda
B10: VG9B454 (antibody, human IgG1, lambda)
heavy: not shown
light: B4 light
notes: IgG1, lambda
B11: VG9B466 (antibody, human IgG1, lambda)
heavy: not shown
light: B4 light with Q1S, A2Y, V3E
notes: IgG1, lambda
B12: VG9B449 (antibody, human IgG1, lambda)
heavy: not shown
light: B4 light with L106V
notes: IgG1, lambda
B13: VG9B453 (antibody, human IgG1, lambda)
heavy: not shown
light: B4 light with A2S, V3A, L106V
notes: IgG1, lambda
B14: VG9B438 (antibody, human IgG1, lambda)
heavy: not shown
light: B4 light with Q1S, A2Y, V3E
notes: IgG1, lambda
B15: VG9B443 (antibody, human IgG1, lambda)
heavy: not shown
light: B4 light with A2S, V3A
notes: IgG1, lambda
B16: VG9B439 (antibody, human IgG1, lambda)
heavy: not shown
light: B4 light with A2S, V3A
notes: IgG1, lambda
B17: VG9B442 (antibody, human IgG1, lambda)
heavy: not shown
light: B4 light with A2S, V3A, L106V
notes: IgG1, lambda
B18: VG9B380 (antibody, human IgG1, lambda, V domains shown)
VH: QVQLQESGPGLVKPSETLSLTCTVSGGSISNYYWSWIRQPAGKGLEWIGRIYPSGITSYDPSLKSRVTMSLDTSKNQFSLKLTSVTAADTAVYYCAGIMGTKGAFDIWGQGTMVTVSS
VL: QSALTQPASVSGSPGQSITISCTGTSSDVGGYNYVSWYQQHPGKAPKLLIYEVSNRPSGVSNRFSGSKSGSTASLTISGLQAEDEADYYCSSYTSTSVVFGGGTKLTVLG
notes: IgG1, lambda
B19: VG9B103 (antibody, human IgG1, kappa, V domains shown)
VH: B1 VH with E6Q, A24T, T31S, R63K, M69T, T77S, S104T, M118T
VL: B1 VL with I2T, V3T, M4L, S28G, R79K, T81S, P85A, I94M, R108K, L109V
notes: IgG1, kappa
B20: VG9B131 (antibody, human IgG1, kappa, V domains shown)
VH: QVQLVQSGGTLVQPGGSLRLSCAVSGFTFSSYDMNWVRQAPGKGLEWVSYISSSSTAKYYADSVKGRFTISRDNAKNSLYLQMNSLWDEDTAVYYCAREDIVVVTPILQHWGQGTLVTVSS
VL: EIVMTQSPATLSLSPGERATLSCRASQSVSNYLAWYQQKSGQAPRLLIYDASNRATGIPARFSGSGSGTDFTLTISSLEPEDFAVYCCQQRSNWTFGQGTRLEIKR
notes: IgG1, kappa
B21: VG9B106 (antibody, human IgG1, kappa, V domains shown)
VH: EVQLVQSGAEVKKPGASVKVSCKASGYTFTGYYLHWVRQAPGQGLEWVGWINPSSGDTDYAQTFQGRVTMTRDTSISTAYMELSRLRSDDTAVYYCANELGIGVFDYWGQGTLVTVSS
VL: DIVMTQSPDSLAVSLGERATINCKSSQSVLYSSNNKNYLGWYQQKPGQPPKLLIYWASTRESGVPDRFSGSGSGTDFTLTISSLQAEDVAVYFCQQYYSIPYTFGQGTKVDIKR
notes: IgG1, kappa
B22: VG9B115 (antibody, human IgG1, kappa, V domains shown)
VH: QVTLRESGPTLVKPTQTLTLTCTFSGFSLSTYGVGVGWIRQPPGKALEWLALIYWNDDKRYNPSLKSRLTITKDTSKNQVVLTMTNMDPVGTATYYCSHESDWSYYFDYWGQGTMVTVSS
VL: EIVLTQSPATLSLSPGERATLSCRASQSVSSYLAWYQQKPGLAPRLLIYDASNRATGIPARFSGSGSGTDFTLTISSLEPVDFAVYYCQQRSSWPWTFGQGTKVDIKR
notes: IgG1, kappa
B23: VG9B27 (antibody, human IgG1, kappa, V domains shown)
VH: EVQLVQSGAEVKKPGSSVKVSCKASGGTFSSYVISWVRQAPGQGLEWMGGILPILSTANYAQKFQGRVTITADKSTSTAYMELSSLRSEDTAVYYCARAHDYYYGMDVWGQGTMVTVSS
VL: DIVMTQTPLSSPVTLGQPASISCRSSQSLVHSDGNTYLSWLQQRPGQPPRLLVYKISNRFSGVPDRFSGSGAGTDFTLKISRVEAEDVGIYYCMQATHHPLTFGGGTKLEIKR
notes: IgG1, kappa
B24: VG9B163 (antibody, human IgG1, lambda, V domains shown)
VH: B3 VH with E1Q, L5V, E6Q
VL: QLVLTQPPSVSAAPGQKVTISCSGNSSNIGHNYVSWYQQLPGTAPKLLIYDNNQRPSGIPDRFSGSKSDTSATLGITGLQTGDEADYYCGIWDSSLSIVVFGGGTKVTVLG
notes: IgG1, lambda
B25: VG9B462 (antibody, human IgG1, lambda)
heavy: not shown
light: B4 light with A2S
notes: IgG1, lambda
B26: VG9B458 (antibody, human IgG1, lambda)
heavy: not shown
light: B4 light with A2S
notes: IgG1, lambda
B27: VG9B461 (antibody, human IgG1, lambda)
heavy: not shown
light: B4 light with A2P, P7S, A8S, L106V
notes: IgG1, lambda

In one experiment the target is T1, γδ T cell receptor on human γδ T cells (human).
T1 construct: also called AG000003021 (γδ T cells)
The experiment can be described thus: flow cytometry, DRC binding 37 C, human γδ T cells. On the procedure: (§1) Binding of antibodies to human γδ T cells or SKW cell lines expressing Vγ9/Vδ2, Vγ9/Vδ2 or Vγ5/Vδ2 was carried out by flow cytometry. Briefly, the cells were centrifuged at 300×g for 5 minutes and the pellet was resuspended in 34 ml fresh media (in RPMI+10% FBS). 50 μL of the cells were then plated (44K cells/well) into assay plates. Samples were incubated for one hour at 37° C. in tissue culture (TC) incubator followed by wash steps by adding 100 μl FACS staining buffer. Secondary detention antibodies (A647 conjugated anti-human IgG Fc specific antibody (2 μg/mL) along with AF488 anti mouse CD3, clone OKT3 at 1 ug/mL) were added at 50 μL/well to appropriate wells according to the plate map. After incubating for 60 minutes at 37° C. in the TC incubator, cells were again washed as described above. This is followed by resuspension in 20 μL/well running buffer containing 1:1000 dilution of Sytox blue dead cell stain and the plates were run on iQue Screener.
(§2) Gating and data analysis: Human anti-human Vγ9 antibody (VG9B2 mAb at 10 nM) was used to mark the gating of positive population. All cells were first gated for singlets on SCS-A vs. SCS-H dot plot, live/dead followed by CD3 positive population, and this subset of CD3 positive population was gated for Vγ9 positive binding using positive control mAb. Cells were also assessed for cell binding of control mAbs by RL1 (A647) Geomeans from the live cell population. Advanced metrics were used and normalization metrics were chosen to calculate fold over background wells containing secondary antibody alone (designated as ‘background’ within ForeCyt settings).
(In general: In flow cytometry, cells or beads pass a laser one at a time.)
For the molecule B1, the “Max. Activity” value turned out to be 1190 fold over background. Same read-out and setting: to B2 belongs 1130 fold over background. In the case of B3, the “Max. Activity” value was determined as 1070 fold over background. Regarding B4, the “Max. Activity” value came to 865 fold over background. Take B5: the “Max. Activity” value came out at 1090 fold over background.

On to B6, for which the “Max. Activity” value worked out at 886 fold over background. Consider B7, for which the “Max. Activity” value came out at 1000 fold over background. As for B8, the “Max. Activity” value was 928 fold over background. B9: the “Max. Activity” value was determined as 885 fold over background.

With B10, the “Max. Activity” value came to 1240 fold over background. In the case of B11, the “Max. Activity” value was 946 fold over background.

B12: the “Max. Activity” value was found to be 1180 fold over background.

Turning to B13, the “Max. Activity” value is 1040 fold over background.

For B14, the “Max. Activity” value turned out to be 895 fold over background. Still for that read-out and setting: to B15 belongs 1010 fold over background; to B16, 1240 fold over background. Same read-out and setting: to B17 belongs 856 fold over background.

The next experiment addresses T2, gamma-delta T cell receptor on human γδ T cells (human).
T2 construct: also called AG000003021 (γδ T cells)
The experiment can be described thus: flow cytometry, dose-response binding at 37 C, human γδ T cells. On the procedure: as §1, §2
As for B18, the “Max. Activity” value turned out to be 1750 fold over background.

For B19, the “Max. Activity” value was 1680 fold over background.

B20: the “Max. Activity” value was 1400 fold over background. In the case of B21, the “Max. Activity” value was determined as 1520 fold over background. Turning to B22, the “Max. Activity” value came to 1520 fold over background. Same read-out and setting: to B23 belongs 1450 fold over background; to B24, 1350 fold over background; to B25, 1540 fold over background.

On to B26, for which the “Max. Activity” value stood at 1410 fold over background. Still for that read-out and setting: to B27 belongs 1540 fold over background.
